{"source": "the Immune Epitope Database (IEDB)", "key": {"[1]": {"biological_target": "HLA-B*15:09", "experiment": "IEDB peptide-MHC binding, purified MHC/competitive/fluorescence; filed as Kd, often an IC50 or EC50 that approximates it; ≥ and ≤ were set here for values at or beyond the usual limits of such assays"}, "[2]": {"biological_target": "HLA-A*31:01", "experiment": "IEDB peptide-MHC binding, purified MHC/direct/fluorescence; filed as Kd, often an IC50 or EC50 that approximates it; ≥ and ≤ were set here for values at or beyond the usual limits of such assays"}, "[3]": {"biological_target": "HLA-B*57:01", "experiment": "IEDB peptide-MHC binding, purified MHC/direct/fluorescence; filed as Kd, often an IC50 or EC50 that approximates it; ≥ and ≤ were set here for values at or beyond the usual limits of such assays"}, "[4]": {"biological_target": "HLA-B*08:01", "experiment": "IEDB peptide-MHC binding, purified MHC/direct/fluorescence; filed as Kd, often an IC50 or EC50 that approximates it; ≥ and ≤ were set here for values at or beyond the usual limits of such assays", "conditions": "source organism: Ravn virus - Ravn, Kenya, 1987"}, "[5]": {"biological_target": "HLA-A*26:01", "experiment": "IEDB peptide-MHC binding, purified MHC/direct/fluorescence; filed as Kd, often an IC50 or EC50 that approximates it; ≥ and ≤ were set here for values at or beyond the usual limits of such assays", "conditions": "source organism: Ravn virus - Ravn, Kenya, 1987"}, "[6]": {"biological_target": "HLA-A*68:02", "experiment": "IEDB peptide-MHC binding, purified MHC/direct/fluorescence; filed as Kd, often an IC50 or EC50 that approximates it; ≥ and ≤ were set here for values at or beyond the usual limits of such assays", "conditions": "source organism: Marburg virus - Musoke, Kenya, 1980"}, "[7]": {"biological_target": "HLA-B*58:01", "experiment": "IEDB peptide-MHC binding, purified MHC/direct/fluorescence; filed as Kd, often an IC50 or EC50 that approximates it; ≥ and ≤ were set here for values at or beyond the usual limits of such assays"}, "[8]": {"biological_target": "HLA-A*02:01", "experiment": "IEDB peptide-MHC binding, purified MHC/direct/fluorescence; filed as Kd, often an IC50 or EC50 that approximates it; ≥ and ≤ were set here for values at or beyond the usual limits of such assays"}, "[9]": {"biological_target": "HLA-B*27:05", "experiment": "IEDB peptide-MHC binding, purified MHC/direct/fluorescence; filed as Kd, often an IC50 or EC50 that approximates it; ≥ and ≤ were set here for values at or beyond the usual limits of such assays"}, "[10]": {"biological_target": "HLA-A*11:01", "experiment": "IEDB peptide-MHC binding, purified MHC/direct/fluorescence; filed as Kd, often an IC50 or EC50 that approximates it; ≥ and ≤ were set here for values at or beyond the usual limits of such assays"}, "[11]": {"biological_target": "HLA-A*69:01", "experiment": "IEDB peptide-MHC binding, purified MHC/direct/fluorescence; filed as Kd, often an IC50 or EC50 that approximates it; ≥ and ≤ were set here for values at or beyond the usual limits of such assays"}, "[12]": {"biological_target": "HLA-B*07:02", "experiment": "IEDB peptide-MHC binding, purified MHC/direct/fluorescence; filed as Kd, often an IC50 or EC50 that approximates it; ≥ and ≤ were set here for values at or beyond the usual limits of such assays"}, "[13]": {"biological_target": "HLA-B*18:01", "experiment": "IEDB peptide-MHC binding, purified MHC/direct/fluorescence; filed as Kd, often an IC50 or EC50 that approximates it; ≥ and ≤ were set here for values at or beyond the usual limits of such assays"}, "[14]": {"biological_target": "HLA-B*44:02", "experiment": "IEDB peptide-MHC binding, purified MHC/direct/fluorescence; filed as Kd, often an IC50 or EC50 that approximates it; ≥ and ≤ were set here for values at or beyond the usual limits of such assays", "conditions": "source organism: Marburg virus - Musoke, Kenya, 1980"}, "[15]": {"biological_target": "HLA-A*01:01", "experiment": "IEDB peptide-MHC binding, purified MHC/direct/fluorescence; filed as Kd, often an IC50 or EC50 that approximates it; ≥ and ≤ were set here for values at or beyond the usual limits of such assays"}, "[16]": {"biological_target": "HLA-B*40:01", "experiment": "IEDB peptide-MHC binding, purified MHC/direct/fluorescence; filed as Kd, often an IC50 or EC50 that approximates it; ≥ and ≤ were set here for values at or beyond the usual limits of such assays"}, "[17]": {"biological_target": "HLA-B*48:01", "experiment": "IEDB peptide-MHC binding, purified MHC/direct/fluorescence; filed as Kd, often an IC50 or EC50 that approximates it; ≥ and ≤ were set here for values at or beyond the usual limits of such assays"}, "[18]": {"biological_target": "HLA-B*15:17", "experiment": "IEDB peptide-MHC binding, purified MHC/direct/fluorescence; filed as Kd, often an IC50 or EC50 that approximates it; ≥ and ≤ were set here for values at or beyond the usual limits of such assays"}, "[19]": {"biological_target": "HLA-C*07:02", "experiment": "IEDB peptide-MHC binding, purified MHC/direct/fluorescence; filed as Kd, often an IC50 or EC50 that approximates it; ≥ and ≤ were set here for values at or beyond the usual limits of such assays", "conditions": "source organism: Homo sapiens"}, "[20]": {"biological_target": "HLA-B*73:01", "experiment": "IEDB peptide-MHC binding, purified MHC/direct/fluorescence; filed as Kd, often an IC50 or EC50 that approximates it; ≥ and ≤ were set here for values at or beyond the usual limits of such assays", "conditions": "source organism: Homo sapiens"}, "[21]": {"biological_target": "HLA-B*39:01", "experiment": "IEDB peptide-MHC binding, purified MHC/competitive/fluorescence; filed as Kd, often an IC50 or EC50 that approximates it; ≥ and ≤ were set here for values at or beyond the usual limits of such assays", "conditions": "source organism: Mycobacterium tuberculosis variant bovis BCG str. Pasteur 1173P2"}, "[22]": {"biological_target": "HLA-B*46:01", "experiment": "IEDB peptide-MHC binding, purified MHC/direct/fluorescence; filed as Kd, often an IC50 or EC50 that approximates it; ≥ and ≤ were set here for values at or beyond the usual limits of such assays", "conditions": "source organism: Mycobacterium tuberculosis"}, "[23]": {"biological_target": "HLA-B*15:01", "experiment": "IEDB peptide-MHC binding, purified MHC/direct/fluorescence; filed as Kd, often an IC50 or EC50 that approximates it; ≥ and ≤ were set here for values at or beyond the usual limits of such assays", "conditions": "source organism: Mycobacterium tuberculosis"}, "[24]": {"biological_target": "HLA-B*51:01", "experiment": "IEDB peptide-MHC binding, purified MHC/direct/fluorescence; filed as Kd, often an IC50 or EC50 that approximates it; ≥ and ≤ were set here for values at or beyond the usual limits of such assays", "conditions": "source organism: Mycobacterium tuberculosis"}, "[25]": {"biological_target": "HLA-A*03:01", "experiment": "IEDB peptide-MHC binding, purified MHC/direct/fluorescence; filed as Kd, often an IC50 or EC50 that approximates it; ≥ and ≤ were set here for values at or beyond the usual limits of such assays", "conditions": "source organism: Mycobacterium tuberculosis"}, "[26]": {"biological_target": "HLA-B*38:01", "experiment": "IEDB peptide-MHC binding, purified MHC/direct/fluorescence; filed as Kd, often an IC50 or EC50 that approximates it; ≥ and ≤ were set here for values at or beyond the usual limits of such assays", "conditions": "source organism: Mycobacterium tuberculosis str. Haarlem"}, "[27]": {"biological_target": "HLA-B*48:01", "experiment": "IEDB peptide-MHC binding, purified MHC/competitive/fluorescence; filed as Kd, often an IC50 or EC50 that approximates it; ≥ and ≤ were set here for values at or beyond the usual limits of such assays", "conditions": "source organism: Vibrio vulnificus CMCP6"}, "[28]": {"biological_target": "HLA-C*15:02", "experiment": "IEDB peptide-MHC binding, purified MHC/direct/fluorescence; filed as Kd, often an IC50 or EC50 that approximates it; ≥ and ≤ were set here for values at or beyond the usual limits of such assays", "conditions": "source organism: Vibrio vulnificus CMCP6"}, "[29]": {"biological_target": "HLA-B*40:02", "experiment": "IEDB peptide-MHC binding, cellular MHC/competitive/fluorescence; ≥ and ≤ were set here for values at or beyond the usual limits of such assays", "conditions": "source organism: Homo sapiens"}, "[30]": {"conditions": "source organism: Marburg virus - Musoke, Kenya, 1980"}, "[31]": {"conditions": "source organism: Mycobacterium tuberculosis"}}}
{"sequence": "AEILSGRVI", "values": [{"measurement": "Kd", "setting": "[1]; source organism: Orthomarburgvirus marburgense", "result": "≥ 20", "unit": "µM"}, {"measurement": "Kd", "setting": "[2]; [30]", "result": "≥ 20", "unit": "µM"}, {"measurement": "Kd", "setting": "[3]; [30]", "result": "≥ 20", "unit": "µM"}, {"measurement": "Kd", "setting": "[4]", "result": "≥ 20", "unit": "µM"}, {"measurement": "Kd", "setting": "[5]", "result": "≥ 20", "unit": "µM"}, {"measurement": "Kd", "setting": "[6]", "result": "≥ 20", "unit": "µM"}, {"measurement": "Kd", "setting": "[7]; [30]", "result": "≥ 20", "unit": "µM"}, {"measurement": "Kd", "setting": "[8]; [30]", "result": "≥ 20", "unit": "µM"}, {"measurement": "Kd", "setting": "[9]; [30]", "result": "≥ 20", "unit": "µM"}, {"measurement": "Kd", "setting": "[10]; [30]", "result": "≥ 20", "unit": "µM"}, {"measurement": "Kd", "setting": "[11]; [30]", "result": "≥ 20", "unit": "µM"}, {"measurement": "Kd", "setting": "[12]; [30]", "result": "≥ 20", "unit": "µM"}, {"measurement": "Kd", "setting": "[13]; [30]", "result": 16.7, "unit": "µM"}, {"measurement": "Kd", "setting": "[14]", "result": "≥ 21", "unit": "µM"}, {"measurement": "Kd", "setting": "[15]; [30]", "result": "≥ 20", "unit": "µM"}, {"measurement": "Kd", "setting": "[16]; [30]", "result": 0.0055, "unit": "µM"}, {"measurement": "Kd", "setting": "[17]; [30]", "result": "≥ 20", "unit": "µM"}, {"measurement": "Kd", "setting": "[18]; [30]", "result": "≥ 20", "unit": "µM"}]}
{"sequence": "FPLWWVSSI", "values": [{"measurement": "Kd", "setting": "[19]", "result": 2.3, "unit": "µM"}, {"measurement": "Kd", "setting": "[20]", "result": "≥ 20", "unit": "µM"}]}
{"sequence": "GPASLPTAL", "values": [{"measurement": "Kd", "setting": "[1]; source organism: Mycobacterium tuberculosis variant bovis BCG str. Pasteur 1173P2", "result": "≥ 20", "unit": "µM"}, {"measurement": "Kd", "setting": "[21]", "result": 0.679, "unit": "µM"}, {"measurement": "Kd", "setting": "[22]", "result": "≥ 20", "unit": "µM"}, {"measurement": "Kd", "setting": "[2]; [31]", "result": "≥ 20", "unit": "µM"}, {"measurement": "Kd", "setting": "[3]; [31]", "result": "≥ 20", "unit": "µM"}, {"measurement": "Kd", "setting": "[23]", "result": "≥ 20", "unit": "µM"}, {"measurement": "Kd", "setting": "[24]", "result": "≥ 20", "unit": "µM"}, {"measurement": "Kd", "setting": "[7]; [31]", "result": "≥ 20", "unit": "µM"}, {"measurement": "Kd", "setting": "[25]", "result": "≥ 20", "unit": "µM"}, {"measurement": "Kd", "setting": "[8]; [31]", "result": "≥ 20", "unit": "µM"}, {"measurement": "Kd", "setting": "[9]; [31]", "result": "≥ 20", "unit": "µM"}, {"measurement": "Kd", "setting": "[10]; [31]", "result": "≥ 20", "unit": "µM"}, {"measurement": "Kd", "setting": "[11]; [31]", "result": 1.24, "unit": "µM"}, {"measurement": "Kd", "setting": "[12]; [31]", "result": 0.0413, "unit": "µM"}, {"measurement": "Kd", "setting": "[13]; [31]", "result": "≥ 20", "unit": "µM"}, {"measurement": "Kd", "setting": "[15]; [31]", "result": "≥ 20", "unit": "µM"}, {"measurement": "Kd", "setting": "[16]; [31]", "result": "≥ 20", "unit": "µM"}, {"measurement": "Kd", "setting": "[17]; [31]", "result": 2.82, "unit": "µM"}, {"measurement": "Kd", "setting": "[26]", "result": "≥ 20", "unit": "µM"}, {"measurement": "Kd", "setting": "[18]; [31]", "result": "≥ 20", "unit": "µM"}]}
{"sequence": "RIHDIAVQL", "values": [{"measurement": "Kd", "setting": "[27]", "result": 0.111, "unit": "µM"}, {"measurement": "Kd", "setting": "[28]", "result": 0.196, "unit": "µM"}]}
{"sequence": "SEFSDVDKL", "values": [{"measurement": "IC50", "setting": "[29]", "result": 1.4, "unit": "µM"}]}
